Reference: PMC2768378 (2009)

Target: H2A.Z-H2B (Saccharomyces cerevisiae, UniProt Q12692)
Test: relaxation dispersion NMR

B1: Chz1 (protein)
chain: SDEAKEKRELESQKESSHNKSEKSVEPKPKRRRRRNYDDYDAEVAKEETKAKNGLTKSENNGTVEDSESDMDDAKLDALMGNEGEEEEDDLAEIDTSNIITSGRRTRGKVIDYKKTAEELDKKEPSTGSKDDVGYGEKEEDDEDEEDDDFKE
- Kd: ~200 nM
